Results taken from the Human Domainome abundance scans (Beltran et al. 2025).
± gives the uncertainty stated by the source.

B1: Chromodomain-helicase-DNA-binding protein 5, residues 338 to 390; numbered along this chain, Q8TDI0 (parent)
chain: YETDHQDYCEVCQQGGEIILCDTCPRAYHLVCLDPELEKAPEGKWSCPHCEKE

Variants of: B1
Assay: abundance fitness (aPCA) (normalised: wild type 0, dead -1); higher = more abundant; growth selection in yeast, the domain comes from the species named
Settings: Homo sapiens

Row | Variant | abundance fitness
1 | C12H | -0.539 ± 0.21
2 | C12G | -0.752 ± 0.11
3 | C12A | -0.688 ± 0.11
4 | C12K | -0.652 ± 0.13
5 | C12Y | -0.891 ± 0.15
6 | C12T | -0.776 ± 0.12
7 | C12R | -1 ± 0.12
8 | C12F | -0.788 ± 0.15
9 | C12N | -0.318 ± 0.2
10 | C12E | -0.866 ± 0.14
11 | C12P | -0.901 ± 0.13
12 | C12Q | -0.79 ± 0.13
13 | C12V | -0.759 ± 0.11
14 | C12I | -0.912 ± 0.16
15 | C9Q | -1.04 ± 0.27
16 | C9S | -0.809 ± 0.17
17 | C9Y | -0.489 ± 0.12
18 | C9W | -1.08 ± 0.18
19 | C9V | -1.07 ± 0.15
20 | C9R | -0.752 ± 0.12
21 | C9P | -0.558 ± 0.15
22 | C9T | -0.643 ± 0.13
23 | Q13A | -0.034 ± 0.1
24 | Q13R | 0.163 ± 0.085

Row | Variant | abundance fitness
25 | Q13C | -0.076 ± 0.14
26 | Q13V | 0.056 ± 0.096
27 | Q13S | 0.157 ± 0.094
28 | Q13M | 0.002 ± 0.13
29 | Q13F | -0.258 ± 0.15
30 | Q13H | -0.268 ± 0.23
31 | Q13L | -0.109 ± 0.091
32 | Q13N | 0.029 ± 0.18
33 | Q13K | -0.233 ± 0.15
34 | Q13G | 0.18 ± 0.084
35 | Q13E | -0.091 ± 0.14
36 | Q13I | -0.204 ± 0.17
37 | Q13P | -0.097 ± 0.14
38 | Q13D | -0.191 ± 0.13
39 | Q13T | -0.185 ± 0.11
40 | Q13Y | -0.198 ± 0.16
41 | Q13W | -0.104 ± 0.1
42 | Y28I | -0.293 ± 0.2
43 | Y28M | -0.148 ± 0.16
44 | Y28P | -0.85 ± 0.22
45 | Y28D | -0.713 ± 0.28
46 | Y28G | -0.125 ± 0.092
47 | Y28S | -0.075 ± 0.12
48 | Y28R | 0.023 ± 0.096

Row | Variant | abundance fitness
49 | Y28L | -0.148 ± 0.13
50 | Y28E | -0.668 ± 0.19
51 | Y28V | 0.054 ± 0.12
52 | Y28A | -0.085 ± 0.14
53 | Y28F | -0.315 ± 0.19
54 | Y28W | -0.098 ± 0.12
55 | Y28Q | -0.709 ± 0.19
56 | Y28N | -0.193 ± 0.28
57 | Y28C | 0.001 ± 0.16
58 | Y28H | -0.158 ± 0.23
59 | I19V | -0.085 ± 0.11
60 | I19T | 0.303 ± 0.12
61 | I19A | 0.109 ± 0.1
62 | I19H | 0.128 ± 0.19
63 | I19F | 0.051 ± 0.22
64 | I19M | 0.256 ± 0.13
65 | I19D | -0.023 ± 0.15
66 | I19L | 0.121 ± 0.11
67 | I19E | -0.056 ± 0.13
68 | I19C | -0.137 ± 0.16
69 | I19R | 0.115 ± 0.088
70 | I19Q | 0.029 ± 0.15
71 | I19G | -0.177 ± 0.094
72 | I19P | -1.07 ± 0.21

Row | Variant | abundance fitness
73 | I19S | -0.104 ± 0.12
74 | I19N | 0.161 ± 0.16
75 | I19K | 0.315 ± 0.16
76 | I19Y | -0.226 ± 0.2
77 | Q14P | -1.04 ± 0.23
78 | Q14T | 0.193 ± 0.14
79 | Q14C | -0.378 ± 0.12
80 | Q14M | 0.084 ± 0.16
81 | Q14A | -0.093 ± 0.17
82 | Q14I | -0.385 ± 0.2
83 | Q14F | -0.295 ± 0.14
84 | Q14H | -0.105 ± 0.17
85 | Q14R | -0.019 ± 0.099
86 | Q14N | -0.065 ± 0.17
87 | Q14G | 0.118 ± 0.12
88 | Q14V | -0.107 ± 0.12
89 | Q14W | -0.237 ± 0.17
90 | Q14S | 0 ± 0.1
91 | Q14D | -0.004 ± 0.17
92 | Q14L | -0.011 ± 0.11
93 | Q14Y | -0.001 ± 0.22
94 | H29A | -0.5 ± 0.12
95 | H29D | -0.451 ± 0.15
96 | H29C | 0.053 ± 0.16

Row | Variant | abundance fitness
97 | E10Q | 0.024 ± 0.13
98 | E10S | -0.112 ± 0.11
99 | E10T | -0.004 ± 0.14
100 | E10A | -0.064 ± 0.1
101 | E10G | 0.015 ± 0.11
102 | E10F | 0.256 ± 0.17
103 | E10K | 0.2 ± 0.12
104 | E10I | 0.188 ± 0.18
105 | E10R | 0.043 ± 0.11
106 | E10W | 0.234 ± 0.14
107 | E10Y | 0.209 ± 0.14
108 | E10N | 0.338 ± 0.18
109 | E10H | -0.394 ± 0.2
110 | E10L | 0.175 ± 0.098
111 | E10D | -0.14 ± 0.18
112 | E10M | -0.07 ± 0.18
113 | E10C | -0.001 ± 0.17
114 | T23Y | -0.161 ± 0.19
115 | T23R | -0.12 ± 0.12
116 | T23Q | -0.15 ± 0.2
117 | T23D | -0.09 ± 0.17
118 | T23W | -0.443 ± 0.17
119 | T23C | -0.177 ± 0.23
120 | T23F | 0.166 ± 0.16

Row | Variant | abundance fitness
121 | T23L | -0.07 ± 0.12
122 | T23K | -0.457 ± 0.22
123 | T23G | -0.305 ± 0.11
124 | T23A | -0.545 ± 0.13
125 | T23N | 0.034 ± 0.17
126 | T23S | -0.01 ± 0.12
127 | T23H | -0.397 ± 0.23
128 | T23E | 0.026 ± 0.17
129 | T23M | 0.114 ± 0.17
130 | T23P | -0.922 ± 0.22
131 | T23I | -0.135 ± 0.2
132 | C21S | -0.811 ± 0.13
133 | C21P | -0.907 ± 0.2
134 | C21Y | -0.739 ± 0.17
135 | C21W | -1.08 ± 0.23
136 | C21N | -0.889 ± 0.27
137 | C21R | -0.929 ± 0.14
138 | C21Q | -0.973 ± 0.28
139 | C21A | -0.563 ± 0.14
140 | C21L | -0.872 ± 0.15
141 | C21D | -0.921 ± 0.17
142 | C21V | -0.519 ± 0.13
143 | C21I | -0.912 ± 0.35
144 | C21E | -1.08 ± 0.28

Row | Variant | abundance fitness
145 | C21M | -0.701 ± 0.18
146 | C21F | -1.22 ± 0.28
147 | C21G | -0.853 ± 0.11
148 | C21K | -0.805 ± 0.2
149 | C21T | -0.995 ± 0.23
150 | A27E | -0.55 ± 0.15
151 | A27D | -0.258 ± 0.17
152 | A27M | -0.29 ± 0.17
153 | A27R | -0.086 ± 0.1
154 | A27I | -0.021 ± 0.21
155 | A27K | -0.242 ± 0.21
156 | A27T | 0.074 ± 0.14
157 | A27W | -0.186 ± 0.17
158 | A27L | -0.204 ± 0.13
159 | A27H | -0.097 ± 0.18
160 | A27Y | -0.159 ± 0.24
161 | A27C | -0.093 ± 0.18
162 | A27V | -0.211 ± 0.12
163 | A27Q | 0.171 ± 0.19
164 | A27S | -0.133 ± 0.12
165 | A27N | 0.048 ± 0.21
166 | A27F | -0.027 ± 0.14
167 | A27P | -0.231 ± 0.14
